Key:
[1] = biological target: T1, human FOLR1 endogenously expressed on tumor cell lines (human, UniProt P15328 25-234); assay: cell-based or functional assay
[2] = biological target: T2, CD16A endogenously expressed on primary human NK cells (human, UniProt P08637 17-254); assay: flow cytometry on primary human NK cells, with 10 mg/mL polyclonal human IgG as competitor, range of 4 experiments
Method: (§1) 4° C., and resuspended in 50 μL/well of diluted antibody constructs. […] After 40-50 minutes' incubation at 37° C., cells were washed 3-times with ice-cold FACS buffer. […] After the final incubation step, cells were washed 2-times with ice-cold FACS buffer, and the cell pellet was resuspended in 50 μL FACS buffer. Fluorescence intensity of >1×10⁴ viable cells was analyzed by flow cytometry and the median fluorescence intensity (MFI) was determined for each sample.
(§2) Equilibrium dissociation constants (KD) of antibody binding were calculated by plotting MFI values and fitting a non-linear regression model for one-site binding to hyperbolic dose-response curves using GraphPad Prism.

[3] = biological target: T1, human FOLR1 endogenously expressed on …; assay: flow cytometry on IGROV-1 cells (FOLR1 high) at 37 °C, FITC anti-human IgG detection
Method: (§3) Cells were collected and centrifuged at 400×g, 5 min, 4° C. Cell pellets were resuspended in FACS buffer (PBS (Invitrogen, cat.: 392-0434) containing 2% h.i. FCS (Invitrogen, cat.: 10500-064), and 0.1% sodium azide (Sigma, cat.: S8032)) at 1-5×10⁶ cells/mL. 100 μL/well of the cell suspension were transferred into U-shaped, 96-well micro plates (0.1-0.5×10⁶ cells per well), cells were pelleted at 400×g, 5 min, 4° C., and resuspended in 100 μL/well of serial dilutions of the indicated antibodies in FACS buffer. After 40-50 min incubation at 37° C., cells were washed 3-times with ice-cold FACS buffer. […] After the final incubation step, cells were washed 2-times with ice-cold FACS buffer, and the cell pellet was resuspended in 100 μL FACS buffer. Fluorescence intensities of >1×10⁴ viable cells were analyzed by flow cytometry and the median fluorescence intensity (MFI) was determined for each sample.

[4] = biological target: T2, CD16A endogenously expressed on primary …; assay: flow cytometry on primary human NK cells at 37 °C, biotinylated antibody, streptavidin-FITC, in the presence of 10 mg/mL polyclonal human IgG (competitor)
Method: Frozen NK cells were thawed, and viability was determined with trypan blue (Sigma-Aldrich, cat.: T8154). Cells have been centrifuged at 400×g, 5 min, 4° C. Cell pellets were resuspended in FACS buffer PBS (Invitrogen, cat.: 392-0434) containing 2% h.i. FCS (Invitrogen, cat.: 10500-064), and 0.1% sodium azide (Sigma, cat.: S8032) at 2×10⁶ cells/mL. 100 μL/well of the cell suspension were transferred into U-shaped 96 well plates, cells were pelleted at 400×g, 5 min. 4° C., and resuspended in 50 μL/well of diluted antibody constructs. […] After 40-50 minutes' incubation at 37° C., cells were washed 3-times with ice-cold FACS buffer. […] After the final incubation step, cells were washed 2-times with ice-cold FACS buffer, and the cell pellet was resuspended in 50 μL FACS buffer. Fluorescence intensity of >1×10⁴ viable cells was analyzed by flow cytometry and the median fluorescence intensity (MFI) was determined for each sample.

[5] = biological target: T1, human FOLR1 endogenously expressed on …; assay: flow cytometry on HCC-827 cells, 37 C, one-site fit of MFI, mean
Method: as §3
(§4) Equilibrium dissociation constants (KD) of antibody binding, mean and standard deviation (SD) were calculated by plotting MFI values and fitting a non-linear regression model for one-site binding to hyperbolic dose-response curves using GraphPad Prism for Windows (v9; GraphPad Software; La Jolla California USA).
(§5) Specific antibody binding capacity (SABC) as a marker for FOLR1 expression level on cells was determined on all tumor cell lines using QIFIKIT.

[6] = biological target: T1, human FOLR1 endogenously expressed on …; assay: flow cytometry on OVCAR-3 cells (FOLR1 medium) at 37 °C, FITC anti-human IgG detection
Method: as §3

[7] = biological target: T2, CD16A endogenously expressed on primary …; assay: flow cytometry on primary human NK cells, without IgG, range of 4 experiments
Method: as §1, §2

[8] = biological target: T2, CD16A endogenously expressed on primary …; assay: flow cytometry on primary human NK cells, biotinylated antibody, 37 C, with 10 mg/mL polyclonal human IgG as competitor, mean of 4
Method: as §1, §2

[9] = biological target: T1, human FOLR1 endogenously expressed on …; assay: flow cytometry on IGROV-1 cells, 37 C, one-site fit of MFI, mean
Method: as §3, §4, §5

[10] = biological target: T1, human FOLR1 endogenously expressed on …; assay: flow cytometry on NCI-H2110 cells, 37 C, one-site fit of MFI, mean
Method: as §3, §4, §5

[11] = biological target: T1, human FOLR1 endogenously expressed on …; assay: flow cytometry on OVCAR-3 cells, 37 C, one-site fit of MFI, mean
Method: as §3, §4, §5

[12] = biological target: T1, human FOLR1 endogenously expressed on …; assay: cell-based or functional assay; remark: listed apart in the source
[13] = biological target: T1, human FOLR1 endogenously expressed on …; assay: cell-based or functional assay; remark: listed apart in the source

T1 sequence (P15328 25-234): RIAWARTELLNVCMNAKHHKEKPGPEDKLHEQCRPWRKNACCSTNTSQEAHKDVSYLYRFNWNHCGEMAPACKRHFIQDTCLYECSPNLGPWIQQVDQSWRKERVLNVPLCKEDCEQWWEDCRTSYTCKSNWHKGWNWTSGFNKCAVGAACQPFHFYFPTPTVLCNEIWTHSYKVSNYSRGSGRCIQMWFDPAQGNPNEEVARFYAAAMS
T2 sequence (P08637 17-254 limits assumed): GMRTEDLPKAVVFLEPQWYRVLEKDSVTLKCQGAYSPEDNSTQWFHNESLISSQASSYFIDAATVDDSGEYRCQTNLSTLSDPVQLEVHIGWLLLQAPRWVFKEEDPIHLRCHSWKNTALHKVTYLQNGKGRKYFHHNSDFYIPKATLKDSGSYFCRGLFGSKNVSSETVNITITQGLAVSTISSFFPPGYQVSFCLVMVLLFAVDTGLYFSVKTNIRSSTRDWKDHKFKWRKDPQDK

B1: scFv-IgAb_387 (FOLR1_1×CD16a3) (bispecific antibody)
heavy: EVQLVESGGGVVQPGRSLRLSCSASGFTFSGYGLSWVRQAPGKGLEWVAMISSGGSYTYYADSVKGRFAISRDNAKNTLFLQMDSLRPEDTGVYFCARHGDDPAWFAYWGQGTPVTVSSASTKGPSVFPLAPSSKSTSGGTAALGCLVKDYFPEPVTVSWNSGALTSGVHTFPAVLQSSGLYSLSSVVTVPSSSLGTQTYICNVNHKPSNTKVDKKVEPKSCDKTHTCPPCPAPEFEGGPSVFLFPPKPKDTLMISRTPEVTCVVVAVSHEDPEVKFNWYVDGVEVHNAKTKPREEQYNSTYRVVSVLTVLHQDWLNGKEYKCKVSNKALPAPIEKTISKAKGQPREPQVYTLPPSREEMTKNQVSLTCLVKGFYPSDIAVEWESNGQPENNYKTTPPVLDSDGSFFLYSKLTVDKSRWQQGNVFSCSVMHEALHNHYTQKSLSLSPGGGGGSGGGGSGGGGSGGGGSGGGGSGGGGSSYELTQPLSVSVALGQTARITCGGNNIGSKSVHWYQQKPGQAPVLVIYQDKKRPSGIPERFSGSNSGNTATLTISRAQAGDEADYYCQVWDDYIVLFGCGTKLTVLGGSGGSGGSGGSGGSGGSGGSQVQLVQSGAEVKKPGASVKVSCKASGYTFTNYYMQWVRQAPGQCLEWMGIINPSGGVTSYAQKFQGRVTMTRDTSTSTVYMELSSLRSEDTAVYYCARGSAYYYDFADYWGQGTLVTVSSG
light: DIQLTQSPSSLSASVGDRVTITCSVSSSISSNNLHWYQQKPGKAPKPWIYGTSNLASGVPSRFSGSGSGTDYTFTISSLQPEDIATYYCQQWSSYPYMYTFGQGTKVEIKRTVAAPSVFIFPPSDEQLKSGTASVVCLLNNFYPREAKVQWKVDNALQSGNSQESVTEQDSKDSTYSLSSTLTLSKADYEKHKVYACEVTHQGLSSPVTKSFNRGEC
modifications: Chemically biotinylated (NHS-PEG4-biotin) in Example 22 only.
notes: Tetravalent bispecific scFv-IgAb; also called FOLR1×CD16A scFv-IgAb_387; FOLR1/CD16A scFv-IgAb_387; copies: 2 + 2
[1]
  EC50 [pM] of ADCC, 4 h calcein release, NK cells E:T 5:1, IGROV-1 cells: 1 pM
  EC50 [pM] of ADCC, A2780 cells: 5.5 pM
  EC50 [pM] of ADCC, HCC-827 cells: 2.8 pM
  EC50 [pM] of ADCC, MDA-MB-231 cells: 6.5 pM
  EC50 [pM] of ADCC, NCI-H2110 cells: 0.8 pM
  EC50 [pM] of ADCC, OVCAR-3 cells: 1.1 pM
  fold-improvement in efficacy vs IgAb_335, ADCC, A2780 cells: 2.9 fold
  fold-improvement in efficacy vs IgAb_335, ADCC, HCC-827 cells: 1.9 fold
  fold-improvement in efficacy vs IgAb_335, ADCC, IGROV-1 cells: 0.9 fold
  fold-improvement in efficacy vs IgAb_335, ADCC, MDA-MB-231 cells: 2.1 fold
  fold-improvement in efficacy vs IgAb_335, ADCC, NCI-H2110 cells: 1.2 fold
  fold-improvement in efficacy vs IgAb_335, ADCC, OVCAR-3 cells: 1.4 fold
  fold-improvement in potency vs IgAb_335, ADCC, A2780 cells: 593 fold
  fold-improvement in potency vs IgAb_335, ADCC, HCC-827 cells: 30.8 fold
  fold-improvement in potency vs IgAb_335, ADCC, IGROV-1 cells: 15.1 fold
  fold-improvement in potency vs IgAb_335, ADCC, MDA-MB-231 cells: 54 fold
  fold-improvement in potency vs IgAb_335, ADCC, NCI-H2110 cells: 34.4 fold
  fold-improvement in potency vs IgAb_335, ADCC, OVCAR-3 cells: 40.4 fold
[2]
  Kd: 14.3 to 36.4 nM
[3]
  EC50 (read off the curve): ~3 nM
[4]
  EC50 (read off the curve): ~20 nM
[5]
  Kd: 2.7 nM
[6]
  EC50 (read off the curve): ~2 nM
[7]
  Kd: 3.7 to 5.4 nM
[8]
  Kd: 23.1 nM
[9]
  Kd: 3.7 nM
[10]
  Kd: 2.5 nM
[11]
  Kd: 1.7 nM
[12]
  EC50 [nM] of ADCP, DK-MG cells: 0.1 nM
  EC50 [nM] of ADCP, HCC-78 cells: 17.8 nM
  EC50 [nM] of ADCP, HeLa cells: 0.16 nM
  Phagocytosis [%], 4 h ADCP, DK-MG cells: 17.6%
  Phagocytosis [%], 4 h ADCP, HCC-78 cells: 26%
[13]
  EC50 of ADCC, 4 h calcein release, NK cells, HCC-827 cells: 0.006 nM
  EC50 of ADCC, 4 h calcein release, NK cells, OVCAR-3 cells: 0.0008 nM

From patent US20240417475A1 (AFFIMED, published 2024)
